Series [1] has as its target T1, reconstituted Tda2–Aim21 complex (GST-Aim21–His-Tda2 complex) (S. cerevisiae, UniProt P40563 1-679; P40045 1-126).
T1 sequence (looked up) 1: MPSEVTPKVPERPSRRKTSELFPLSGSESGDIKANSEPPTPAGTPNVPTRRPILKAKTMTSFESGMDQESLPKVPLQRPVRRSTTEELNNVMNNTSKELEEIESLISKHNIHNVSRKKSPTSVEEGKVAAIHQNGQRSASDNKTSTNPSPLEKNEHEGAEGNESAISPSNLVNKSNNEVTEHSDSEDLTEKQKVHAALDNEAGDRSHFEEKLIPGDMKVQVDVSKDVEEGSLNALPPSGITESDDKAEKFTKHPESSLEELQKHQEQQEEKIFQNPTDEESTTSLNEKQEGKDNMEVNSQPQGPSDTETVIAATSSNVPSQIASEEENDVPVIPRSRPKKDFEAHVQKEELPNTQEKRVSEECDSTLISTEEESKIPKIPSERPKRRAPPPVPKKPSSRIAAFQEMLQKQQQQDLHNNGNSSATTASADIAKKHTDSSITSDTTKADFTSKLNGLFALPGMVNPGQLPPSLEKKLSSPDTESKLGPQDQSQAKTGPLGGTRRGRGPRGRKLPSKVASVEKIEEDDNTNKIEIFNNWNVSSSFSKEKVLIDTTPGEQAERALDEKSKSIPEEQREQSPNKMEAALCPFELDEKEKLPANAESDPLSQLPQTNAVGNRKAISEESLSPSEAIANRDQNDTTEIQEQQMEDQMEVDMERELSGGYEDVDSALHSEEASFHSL
T1 sequence (looked up) 2: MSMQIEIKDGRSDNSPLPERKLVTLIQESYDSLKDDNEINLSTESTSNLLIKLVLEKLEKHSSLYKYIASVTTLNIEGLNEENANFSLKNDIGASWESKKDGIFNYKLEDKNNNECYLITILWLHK
Description: pull-down.

The target in another series is T2, GST-Aim21 (S. cerevisiae, UniProt P40563 1-679).
T2 sequence (looked up): T1 sequence (looked up) 1
The experiment in a line: pull-down.

The series “AUC” concerns the molecule itself. Description: AUC.

B1: actin-capping protein carrying a 6His-tag in its Cap1 subunit (His-Cap1/Cap2 dimer) (complex, S. cerevisiae)
chain 1: MSSSKFEEVINKIINDSPPGELREVYDDLIKITSENSKNTILDAIENYNVQNCIPIEVNGNSVIISKYNKEGAKFFDPVNSVIFSVNHLERKGLDIEPYEFTHAKIEKGQLKELHDKLHEYLLQSFPGDVSFAVYPVPEEISKISIIIVSTKYNPNNFWNGHWRSSYIYDLETRELSGQISTQVHYYEDGNVSFQSGKDINQSNVDDVVCTIRDIETNFENDLDLSFFDLNEKQFKALRRRLPVTRSKINWGSAIGSYRLGKNAAEGK
chain 2: MSDAQFDAALDLLRRLNPTTLQENLNNLIELQPNLAQDLLSSVDVPLSTQKDSADSNREYLCCDYNRDIDSFRSPWSNTYYPELSPKDLQDSPFPSAPLRKLEILANDSFDVYRDLYYEGGISSVYLWDLNEEDFNGHDFAGVVLFKKNQSDHSNWDSIHVFEVTTSPSSPDSFNYRVTTTIILHLDKTKTDQNSHMMLSGNLTRQTEKDIAIDMSRPLDVIFTSHVANLGSLIEDIESQMRNLLETVYFEKTRDIFHQTKNAAIASSAEEANKDAQAEVIRGLQSL
B1: the binding result in series [1] was “binds”.

B2: recombinant 6-histidine-tagged Tda2 (natural protein, S. cerevisiae, UniProt P40045 1-126, looked up)
chain: T1 sequence (looked up) 2
What is called stoichiometry N is a count of units in the complex or per binding partner. With B2, the binding result with GST-Aim21 is reported as “binds”. In addition, the “stoichiometry N” value in the series “AUC” came to 2.

The values are drawn from article PMC5551697 (The Journal of Cell Biology, 2017).
